T1: PTH1R (Homo sapiens, UniProt Q03431)
T1 sequence (Q03431 27-593): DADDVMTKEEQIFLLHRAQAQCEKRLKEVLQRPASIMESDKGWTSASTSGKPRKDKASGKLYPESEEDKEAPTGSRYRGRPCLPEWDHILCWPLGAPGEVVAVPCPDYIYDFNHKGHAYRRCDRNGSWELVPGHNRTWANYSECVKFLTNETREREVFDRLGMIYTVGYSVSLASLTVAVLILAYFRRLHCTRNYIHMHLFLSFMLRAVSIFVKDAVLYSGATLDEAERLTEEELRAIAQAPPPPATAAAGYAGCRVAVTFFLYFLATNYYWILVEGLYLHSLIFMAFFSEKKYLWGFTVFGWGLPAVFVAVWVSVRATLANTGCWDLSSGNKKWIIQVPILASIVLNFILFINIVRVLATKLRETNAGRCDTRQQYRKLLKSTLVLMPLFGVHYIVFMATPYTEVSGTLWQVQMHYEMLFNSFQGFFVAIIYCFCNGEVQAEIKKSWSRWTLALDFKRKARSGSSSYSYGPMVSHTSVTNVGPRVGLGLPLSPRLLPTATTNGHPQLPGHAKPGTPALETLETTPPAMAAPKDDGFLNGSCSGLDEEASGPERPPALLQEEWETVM

B1: LRP6T+C: truncated LRP6 containing the transmembrane and intracellular domains, tagged with VSVG (protein)
chain: TNTVGSVIGVIVTIFVSGTVYFICQRMLCPRMKGDGETMTNDYVVHGPASVPLGYVPHPSSLSGSLPGMSRGKSMISSLSIMGGSSGPPYDRAHVTGASSSSSSSTKGTYFPAILNPPPSPATERSHYTMEFGYSSNSPSTHRSYSYRPYSYRHFAPPTTPCSTDVCDSDYAPSRRMTSVATAKGYTSDLNYDSEPVPPPPTPRSQYLSAEENYESCPPSPYTERSYSHHLYPPPPSPCTDSS
modifications: left off: small tags and cut ends
notes: truncated LRP6 containing the transmembrane and intracellular domains, tagged with VSVG
B2: DKK1: secreted protein binding to LRP6 at the extracellular domain (protein, UniProt O94907 32-266, looked up)
Dickkopf-related protein 1: TLNSVLNSNAIKNLPPPLGGAAGHPGSAVSAAPGILYPGGNKYQTIDNYQPYPCAEDEECGTDEYCASPTRGGDAGVQICLACRKRRKRCMRHAMCCPGNYCKNGICVSSDQNHFRGEIEETITESFGNDHSTLDGYSRRTTLSSKMYHTKGQEGSVCLRSSDCASGLCCARHFWSKICKPVLKEGQVCTKHRRKGSHGLEIFQRCYCGEGLSCRIQKDHHQASNSSRLHTCQRH
B3: sclerostin: secreted protein binding to LRP6 at the extracellular domain (protein, UniProt Q9BQB4 24-213, looked up)
Sclerostin: QGWQAFKNDATEIIPELGEYPEPPPELENNKTMNRAENGGRPPHHPFETKDVSEYSCRELHFTRYVTDGPCRSAKPVTELVCSGQCGPARLLPNAIGRGKWWRPSGPDFRCIPDRYRAQRVQLLCPGGEAPRARKVRLVASCKCKRLTRFHNQSELKDFGTEAARPQKGRKPRPRARSAKANQAELENAY

Legend:
PTH1R = target: T1, PTH1R; test: Co-immunoprecipitation of exogenous LRP5/LRP6 constructs with PTH1R in HEK293 cells; format: cell-based; conditions: co-expressed with PTH1R in HEK293 cells
Text: PTH1R tagged with HA was subcloned into pcDNA3.1. cDNAs from human LRP5 (Mao et al., Mol. Cell. 7:801-9 (2001)) and LRP6 (Tamai et al., Nature 407:530-35 (2000)) tagged with HA and VSVG were subcloned into pCMV and pCS2^+, respectively. LRP6N+T (LRP6 N-terminal plus the transmembrane domain) and LRP6T+C (LRP6 transmembrane domain plus C-terminal) tagged with VSVG were subcloned into pCS2^+. LRP6N+1479m, LRP6N+1490m, LRP6N+1493m and LRP6N+1496m were generated by mutagenesis of either the serine (at amino acid 1490 or amino acid 1496) or threonine (at amino acid 1479 or amino acid 1493) to alanine LRP6N-IgG was generated by fusing the LRP6 extracellular domain with IgG (Tamai et al., Nature 407:530-35 (2000)). si-GFP (Wan et al., Am. J. Pathol. 166:1379-92 (2005)) and si-LRP6 plasmids were generated using a BS/U6 vector. Briefly, a 22-nucleotide oligo (oligo 1) corresponding to nucleotides 2981 to 3002 of the human LRP6 coding region was first inserted into the BS/U6 vector digested with ApaI (blunted) and HindIII. The inverted motif that contains the six-nucleotide spacer and five Ts (oligo 2) was then subcloned into the HindIII and EcoRI sites of the intermediate plasmid to generate BS/U6/LRP5/6.
(§1) Cells were harvested in cavitation buffer (5 mM HEPES, pH 7.4, 3 mM MgCl2, 1 mM EGTA, 250 mM sucrose) containing protease and phosphatase inhibitors and homogenized by nitrogen cavitation (200 p.s.i., for 5 minutes) in a cell disruption bomb (Parr Instrument Co.; Moline, Ill.). The cell homogenate was centrifuged twice at 700 g for 10 minutes to pellet the nuclei. The supernatant was further centrifuged at 100,000 g (Beckman SW50.1 rotor) for 1 hour to separate the membrane and cytosol fractions, and the resulting membrane pellet was washed three times with cavitation buffer before use in the assays (Zhang et al., Biochem. J. 343:541-9 (1999)). Immunoprecipitation and Western blot analysis of cell lysates were performed as described previously (Wan et al., Am. J. Pathol. 166:1379-92 (2005)).

[1] = tested on: luciferase reporter bearing TCF/LEF binding elements; test: TCF/LEF luciferase reporter assay in UMR-106 cells; format: cell-based, rat; conditions: UMR-106 cells treated with PTH
Text: HEK293, UMR-106 and mouse embryonic fibroblast (MEF) cells were maintained in Dulbecco's Modified Eagle Medium (DMEM) with 10% Fetal Calf Serum (FCS). Mouse Wnt3a conditioned medium (Wnt3a CM) was produced from mouse L cells stably transfected with mouse Wnt3a (American Type Culture Collection; Manassas, Va.) and control conditioned medium (Control CM) was from non-transfected L cells. IgG, LRP6N-IgG, DKK1, Sclerostin, VSVG-LRP6N and Myc-Fz8CRD conditioned media were produced from HEK 293 cells transfected with the individual plasmids. Transfections were carried out using lipofectamine reagent (Invitrogen; Carlsbad, Calif.). Luciferase assays were carried out in either UMR-106 or HEK 293 cells as described previously (Wan et al., Am. J. Pathol. 166:1379-92 (2005)), with 0.3 μg of TCF-Luc reporter plasmid plus 50 ng of Renilla luciferase plasmid (internal control) per well in the 12-well plate. Experiments were repeated at least three times with triplicate for each experiment.

β-catenin = test: Western blot of cytosolic β-catenin in HEK 293 cells; format: cell-based; conditions: for effect on PTH-elevated β-catenin level (accumulation in cytosol/cytoplasm): PTH-treated cells (FIG. 5 cells not stated; FIG. 10, 27 HEK293)
Protocol: as §1

Row | Molecule | binding of LRP6 construct to PTH1R (IP assay) (PTH1R) | effect on PTH-stimulated TCF/LEF luciferase (transcriptional) activity [1] | effect on PTH-elevated β-catenin level (accumulation in cytosol/cytoplasm) (β-catenin) | effect on Wnt3a-elevated β-catenin level (β-catenin; Wnt3a-treated cells (FIG. 5 cells not stated; FIG. 27 HEK293))
1 | B1 | could barely be detected |  |  | 
2 | B2 |  | disrupted | disrupted | reduced
3 | B3 |  | disrupted | disrupted | 

Source: patent US20110256557A1, “IDENTIFYING PARATHYROID HORMONE AGONISTS AND ANTAGONISTS” (DISCOVERYBIOMED, INC., priority 2008, published 2011)
